The target in experiment [1] is T1, human CD30 (human, UniProt P28908 19-595).
T1 construct: also called huCD30; TNFRSF8
T1 sequence: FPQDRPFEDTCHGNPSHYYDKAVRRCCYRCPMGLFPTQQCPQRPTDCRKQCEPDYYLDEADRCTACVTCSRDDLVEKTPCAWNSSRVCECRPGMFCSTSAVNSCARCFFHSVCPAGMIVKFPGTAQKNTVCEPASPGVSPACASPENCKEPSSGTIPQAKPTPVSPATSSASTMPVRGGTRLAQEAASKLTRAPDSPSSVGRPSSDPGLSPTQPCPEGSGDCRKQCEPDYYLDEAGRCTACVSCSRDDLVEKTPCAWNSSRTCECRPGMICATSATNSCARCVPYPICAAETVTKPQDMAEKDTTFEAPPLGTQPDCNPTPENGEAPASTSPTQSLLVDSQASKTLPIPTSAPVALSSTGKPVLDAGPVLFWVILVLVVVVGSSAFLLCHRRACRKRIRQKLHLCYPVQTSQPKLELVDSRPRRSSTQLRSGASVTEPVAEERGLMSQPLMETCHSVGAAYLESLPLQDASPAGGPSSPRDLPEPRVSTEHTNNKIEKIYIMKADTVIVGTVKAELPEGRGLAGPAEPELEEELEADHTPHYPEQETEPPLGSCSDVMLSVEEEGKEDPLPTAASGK
As to the kind of experiment: flow cytometry, HDLM-2 cells. In a few lines: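 CD3×CD30 bispecific antibodies, serially diluted 3-fold from 10 to 0.0046 μg/mL, were incubated with 3×10⁴ cells/well at 4° C for 30 min, then with a secondary antibody at 4° C for 30 min. Live cells were gated by FSC/SSC and TO-PRO-3 exclusion, and curves were fitted by four-parameter sigmoidal regression.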

Experiment [2] has as its target T2, human CD3 (human, UniProt P07766 23-207).
T2 construct: CD3 endogenously expressed on primary human T cells (whole TCR/CD3 complex); also called human CD3 (epsilon)
As to the kind of experiment: flow cytometry, primary human T cells. The protocol: Cynomolgus monkey PBMCs (Tebu-Bio, The Netherlands; cat. no. PBMCMFA-10) or purified human T cells were plated in polystyrene 96-well round-bottom plates. T cells were derived from human donor buffy coats (Sanquin, Amsterdam, The Netherlands) and isolated using the RosetteSep human T cell enrichment cocktail (Stemcell Technologies, France, cat. no. 15061) according to manufacturer's instructions. […] After washing twice in staining buffer, cells were incubated in 50 μL secondary R-PE-conjugated goat-anti-human IgG antibody at 4° C. for 30 min (1:400 dilution). After washing twice in staining buffer, T cells were stained for T-cell markers CD3 (1:100; Miltenyi biotec, clone 10D12, conjugated to APC), CD4 (1:50; eBioscience, clone OKT4, conjugated to APC-Cy7), CD8 (1:100; Biolegend, clone RPA-T8, conjugated to AF700) and T-cell activation markers CD69 (1:50; BD Biosciences, clone AB2439, conjugated to FITC), CD25 (1:50; eBioscience, clone BC96, conjugated to PE-Cy7) and CD279/PD1 (1:50; BD Biosciences, clone AEH12.2H7, conjugated to BV605). Single stained samples with Ultracomp beads (5 μL; Invitrogen, cat. no. 01-2222-42) were used for compensation adjustments of the flow cytometer. After 30 min of incubation at 4° C., cells were washed twice with staining buffer, resuspended in 100 μL staining buffer and analyzed using a FACS Fortessa (BD Biosciences). […]
(In general: In flow cytometry, cells or beads pass a laser one at a time.)

The target in experiment [3] is T3, cynomolgus monkey CD3 (cynomolgus monkey, UniProt Q95LI5 22-198).
T3 construct: CD3 endogenously expressed on T cells within cynomolgus monkey PBMCs
In words: flow cytometry, cynomolgus monkey T cells (PBMCs). The protocol:
Cynomolgus monkey PBMCs (Tebu-Bio, The Netherlands; cat. no. PBMCMFA-10) or purified human T cells were plated in polystyrene 96-well round-bottom plates. T cells were derived from human donor buffy coats (Sanquin, Amsterdam, The Netherlands) and isolated using the RosetteSep human T cell enrichment cocktail (Stemcell Technologies, France, cat. no. 15061) according to manufacturer's instructions. […] After washing twice in staining buffer, cells were incubated in 50 μL secondary R-PE-conjugated goat-anti-human IgG antibody at 4° C. for 30 min (1:400 dilution). After washing twice in staining buffer, T cells were stained for T-cell markers CD3 (1:100; Miltenyi biotec, clone 10D12, conjugated to APC), CD4 (1:50; eBioscience, clone OKT4, conjugated to APC-Cy7), CD8 (1:100; Biolegend, clone RPA-T8, conjugated to AF700) and T-cell activation markers CD69 (1:50; BD Biosciences, clone AB2439, conjugated to FITC), CD25 (1:50; eBioscience, clone BC96, conjugated to PE-Cy7) and CD279/PD1 (1:50; BD Biosciences, clone AEH12.2H7, conjugated to BV605). Single stained samples with Ultracomp beads (5 μL; Invitrogen, cat. no. 01-2222-42) were used for compensation adjustments of the flow cytometer. After 30 min of incubation at 4° C., cells were washed twice with staining buffer, resuspended in 100 μL staining buffer and analyzed using a FACS Fortessa (BD Biosciences). Data were processed using FlowJo (BD Biosciences).

Experiment [4] addresses T4, cynomolgus monkey (Macaca fascicularis) CD30 (cynomolgus monkey, UniProt P28908 19-595 (human entry)).
T4 construct: also called mfCD30
T4 chain: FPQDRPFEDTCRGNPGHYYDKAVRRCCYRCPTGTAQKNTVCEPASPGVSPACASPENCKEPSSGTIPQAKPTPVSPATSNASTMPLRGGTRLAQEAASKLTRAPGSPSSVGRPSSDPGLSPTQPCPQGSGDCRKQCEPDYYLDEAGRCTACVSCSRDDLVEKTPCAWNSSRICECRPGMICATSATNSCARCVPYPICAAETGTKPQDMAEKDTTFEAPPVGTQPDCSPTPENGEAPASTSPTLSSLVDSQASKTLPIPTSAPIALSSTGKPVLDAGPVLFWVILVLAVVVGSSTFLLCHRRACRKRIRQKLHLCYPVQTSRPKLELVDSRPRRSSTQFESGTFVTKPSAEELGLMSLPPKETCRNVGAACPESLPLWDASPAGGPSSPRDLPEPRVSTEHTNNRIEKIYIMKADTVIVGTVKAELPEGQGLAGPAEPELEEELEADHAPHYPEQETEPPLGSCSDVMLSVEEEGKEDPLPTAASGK
In words: flow cytometry, Expi293F cells transfected with cynomolgus monkey CD30 (mfCD30). The protocol: Cells (3×10⁴ cells/well) were incubated in polystyrene 96-well round-bottom plates (Greiner bio-one, cat. no. 650180) with serial dilutions of antibodies (ranging from 0.005 to 10 μg/mL in 3-fold dilution steps) in 100 μL staining buffer at 4° C. for 30 min. Experiments were performed in technical duplicate. After washing twice in staining buffer, cells were incubated in 50 μL secondary antibody at 4° C. for 30 min. As a secondary antibody, R-PE-conjugated goat-anti-human IgG (Jackson ImmunoResearch, UK; cat. no. 109⁻¹¹⁶-098) diluted 1:400 in staining buffer was used. Cells were washed twice in staining buffer, resuspended in 30 μL staining buffer containing 0.4% EDTA and analyzed on an iQue Screener (Intellicyt Corporation, USA). Binding curves were analyzed using non-linear regression (sigmoidal dose-response with variable slope) using GraphPad Prism V9.0.0 software (GraphPad Software, San Diego, CA, USA).

The values that follow come from US20260234255A1 (Genmab, published 2026).

T2 sequence (P07766 23-207 limits assumed): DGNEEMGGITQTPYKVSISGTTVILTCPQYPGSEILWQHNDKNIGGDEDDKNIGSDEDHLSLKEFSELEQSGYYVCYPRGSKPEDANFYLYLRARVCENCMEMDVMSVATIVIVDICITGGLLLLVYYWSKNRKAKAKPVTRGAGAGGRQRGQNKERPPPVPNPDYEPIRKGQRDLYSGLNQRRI
T3 sequence (Q95LI5 22-198): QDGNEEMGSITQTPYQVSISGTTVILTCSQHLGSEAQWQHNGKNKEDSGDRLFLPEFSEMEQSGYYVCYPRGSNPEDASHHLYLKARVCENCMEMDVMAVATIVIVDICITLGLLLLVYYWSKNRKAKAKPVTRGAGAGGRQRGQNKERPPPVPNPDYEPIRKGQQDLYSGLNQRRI

B1: IgG1-CD30-MDX060-FEAR (antibody)
heavy: QVQLQQWGAGLLKPSETLSLTCAVYGGSFSAYYWSWIRQPPGKGLEWIGDINHGGGTNYNPSLKSRVTISVDTSKNQFSLKLNSVTAADTAVYYCASLTAYWGQGSLVTVSSASTKGPSVFPLAPSSKSTSGGTAALGCLVKDYFPEPVTVSWNSGALTSGVHTFPAVLQSSGLYSLSSVVTVPSSSLGTQTYICNVNHKPSNTKVDKRVEPKSCDKTHTCPPCPAPEFEGGPSVFLFPPKPKDTLMISRTPEVTCVVVAVSHEDPEVKFNWYVDGVEVHNAKTKPREEQYNSTYRVVSVLTVLHQDWLNGKEYKCKVSNKALPAPIEKTISKAKGQPREPQVYTLPPSREEMTKNQVSLTCLVKGFYPSDIAVEWESNGQPENNYKTTPPVLDSDGSFFLYSRLTVDKSRWQQGNVFSCSVMHEALHNHYTQKSLSLSPG
light: DIQMTQSPTSLSASVGDRVTITCRASQGISSWLTWYQQKPEKAPKSLIYAASSLQSGVPSRFSGSGSGTDFTLTISSLQPEDFATYYCQQYDSYPITFGQGTRLEIKRTVAAPSVFIFPPSDEQLKSGTASVVCLLNNFYPREAKVQWKVDNALQSGNSQESVTEQDSKDSTYSLSSTLTLSKADYEKHKVYACEVTHQGLSSPVTKSFNRGEC
notes: Monospecific, bivalent parental antibody; also called IgG1-MDX060-FEAR
Broadly, the EC50 (read off the curve) is the concentration that produces a half-maximal response. Regarding B1, in experiment [1], the “EC50 (read off the curve)” value is approximately 0.2 µg/mL. For the same molecule, the binding result was “no binding (tested: 10 ug/mL)” in experiment [2], “no binding (tested: 10 ug/mL)” in experiment [3] and “binds” in experiment [4].
